The experiment addresses T1, KLC2-TPR S328N mutant (human, UniProt Q9H0B6-1 217-480, S328N).
T1 construct: kinesin light chain 2 (KLC2), human, TPR domain, residues 217-480 of GenBank NP_073733, with S328N; made from the KLC2-TPR construct with a QuickChange kit; also called KLC2-S328N; not shown: His6 (from the vector pET28-LIC, modified)
The experiment is described as follows: ITC; peptide (1-3 mM) in the syringe injected into 60-130 uM KLC1-TPR or KLC2-TPR (or mutant) in the cell; 25 C; 20 mM Bis-Tris pH 6.5, 500 mM NaCl, 0.5 mM TCEP; one-site binding model. The conditions noted are these: both partners purified.

A word on the Kd: it is the constant that tells how readily two partners part at equilibrium. Read a high Kd as lower affinity. As usually defined, the stoichiometry N is the number of molecules, sites or subunits per partner or assembly.

T1 sequence (Q9H0B6 217-480 S328N): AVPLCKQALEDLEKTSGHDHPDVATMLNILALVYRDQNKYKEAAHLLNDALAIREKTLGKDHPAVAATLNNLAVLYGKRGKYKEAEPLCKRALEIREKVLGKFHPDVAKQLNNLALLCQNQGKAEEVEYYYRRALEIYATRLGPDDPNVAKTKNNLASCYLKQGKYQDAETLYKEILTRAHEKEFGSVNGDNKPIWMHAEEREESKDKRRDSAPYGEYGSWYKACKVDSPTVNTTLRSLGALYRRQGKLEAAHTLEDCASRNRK

B1: JIP1 peptide (C-terminal residues of JNK-interacting protein 1) (peptide)
peptide: Ac-EYTCPTEDIYLE-OH
notes: also called JIP peptide; source: synthetic peptide (Tufts University Core Facility)
Consider B1, for which the Kd stood at 18.7 µM, the dH is -15.9 kcal/mol and the “stoichiometry N” value turned out to be 1.18.

These data come from paper PMC3314626, “Crystal Structures of the Tetratricopeptide Repeat Domains of Kinesin Light Chains: Insight into Cargo Recognition Mechanisms” (PLoS ONE, 2012).
